Assay results: patent US20260092091A1

Biological target: CXCR2 expressed on 300-19 pre-B cells
Assay: cell-based or functional assay

- chemotaxis in Boyden chambers (Transwell), optimal concentration: 50 nM
- transendothelial migration in Boyden chambers (EA.hy 926 monolayer), optimal concentration: 50 nM
Substance: human wild-type GCP-2 (granulocyte chemotactic protein 2, CXCL6), recombinant (from UniProt P80162 38-114) (ligand)
